Test results: paper PMC8080463

T1: CRP (UniProt P02741 19-224)
T1 sequence: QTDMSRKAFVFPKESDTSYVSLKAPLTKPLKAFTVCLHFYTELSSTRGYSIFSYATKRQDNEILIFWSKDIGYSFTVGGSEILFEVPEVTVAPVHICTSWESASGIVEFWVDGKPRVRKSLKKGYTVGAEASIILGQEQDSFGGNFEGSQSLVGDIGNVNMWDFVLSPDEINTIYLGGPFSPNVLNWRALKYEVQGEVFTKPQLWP

T2: PLGF (Homo sapiens, UniProt P49763 19-141+214-221, internal_change)
T2 sequence: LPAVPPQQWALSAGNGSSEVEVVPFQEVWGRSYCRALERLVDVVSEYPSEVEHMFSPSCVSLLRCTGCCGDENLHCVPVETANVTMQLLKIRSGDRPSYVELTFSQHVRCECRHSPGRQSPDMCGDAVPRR


Molecular target: TNF-alpha (UniProt P01375 77-233)
Assay: EMSA

Chain of TNF-alpha (P01375 77-233): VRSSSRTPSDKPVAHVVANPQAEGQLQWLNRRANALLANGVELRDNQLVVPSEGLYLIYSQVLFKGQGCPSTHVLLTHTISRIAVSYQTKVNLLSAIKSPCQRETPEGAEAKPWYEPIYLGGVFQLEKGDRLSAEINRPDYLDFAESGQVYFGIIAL

| Binder | binding result |
| --- | --- |
| GGGTTTGGGTTTGGGGGTAGGG (structured_DNA) [TNFa-PQS1] | no binding |
| GGGCATGGGGACGGGGTTCAGCCTCCAGGG (structured_DNA) [TNFa-PQS2] | no binding |
| GGGTCCGAACAGGGACGATGGGGGTGGG (structured_DNA) [TNFa-PQS3] | no binding |
| GGGAGAGAGGGAGGGAGGTCGTTTGGG (structured_DNA) [TNFa-PQS4] | no binding |

Molecular target: T1, CRP
Assay: EMSA

| Binder | binding result |
| --- | --- |
| GGGGACTGTTGTGGGGTGGGGGGAGGGGGG (ssDNA) [CRP-PQS2] | binds |

Molecular target: Annexin 2 (UniProt P07355 2-339)
Assay: EMSA

Chain of Annexin 2 (P07355 2-339): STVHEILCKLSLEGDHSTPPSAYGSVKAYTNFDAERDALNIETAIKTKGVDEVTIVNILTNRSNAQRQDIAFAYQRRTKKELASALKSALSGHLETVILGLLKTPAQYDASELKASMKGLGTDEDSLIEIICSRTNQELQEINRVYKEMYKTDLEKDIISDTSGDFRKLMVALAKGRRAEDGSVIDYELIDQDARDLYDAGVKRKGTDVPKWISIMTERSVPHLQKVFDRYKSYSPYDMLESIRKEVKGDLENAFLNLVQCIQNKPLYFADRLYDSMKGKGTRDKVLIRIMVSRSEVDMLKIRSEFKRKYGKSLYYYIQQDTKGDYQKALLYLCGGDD

| Binder | binding result |
| --- | --- |
| GGACCTGCGGCTCCCTGGGCGG (structured_DNA) [Annexin2-PQS1] | binds |
| GGGCCGGGAGGGTGCAGGG (structured_DNA) [Annexin2-PQS7] | binds |
| GGCGCCTGGCGCGTCTGGAATGCGG (structured_DNA) [Annexin2-PQS2] | binds |
| GGGCAGGGCCAGGGGCGCTGGG (structured_DNA) [Annexin2-PQS5] | binds |
| GGGGAGGCGGGGCGGGGCGGGG (structured_DNA) [Annexin2-PQS6] | binds |

Molecular target: HGF (UniProt P14210;P14210 32-494;495-728)
Assay: SPR

Chain of HGF (P14210 32-494, chain 1 of 2): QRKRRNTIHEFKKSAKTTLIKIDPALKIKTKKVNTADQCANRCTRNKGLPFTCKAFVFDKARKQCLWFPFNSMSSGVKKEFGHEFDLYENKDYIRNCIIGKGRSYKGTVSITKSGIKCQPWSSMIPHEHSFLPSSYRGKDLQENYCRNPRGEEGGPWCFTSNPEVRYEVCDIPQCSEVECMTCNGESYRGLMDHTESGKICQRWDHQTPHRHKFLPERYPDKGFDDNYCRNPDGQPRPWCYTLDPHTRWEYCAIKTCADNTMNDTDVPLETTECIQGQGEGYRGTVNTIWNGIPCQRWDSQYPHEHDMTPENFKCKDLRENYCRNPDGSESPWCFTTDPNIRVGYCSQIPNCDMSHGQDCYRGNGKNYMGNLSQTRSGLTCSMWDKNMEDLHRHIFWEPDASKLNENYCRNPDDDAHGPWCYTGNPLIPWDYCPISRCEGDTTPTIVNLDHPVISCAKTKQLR
Chain of HGF (P14210 495-728, chain 2 of 2): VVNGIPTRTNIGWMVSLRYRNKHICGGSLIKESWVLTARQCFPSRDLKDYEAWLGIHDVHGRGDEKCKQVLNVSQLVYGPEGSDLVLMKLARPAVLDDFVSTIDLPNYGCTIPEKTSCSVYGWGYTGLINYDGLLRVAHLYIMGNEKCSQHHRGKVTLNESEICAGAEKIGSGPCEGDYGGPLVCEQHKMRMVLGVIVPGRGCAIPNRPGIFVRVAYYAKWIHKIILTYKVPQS

| Binder | binding result |
| --- | --- |
| GGACGGGCTGGCGG (ssDNA) [HGF-PQS5] | no binding |
| GGAAGGGAGGAGCAAGG (structured_DNA) [HGF-PQS6] | no binding |
| GGAAAGGAGGGGGCTGG (structured_DNA) [HGF-PQS9] | no binding |
| GGGCTGGCAGGAGTTTGG (ssDNA) [HGF-PQS4] | no binding |

Molecular target: T1, CRP
Assay: SPR

| Binder | binding result |
| --- | --- |
| GGGATCGTGGAGTTCTGGGTAGATGGGAAGCCCAGGG (ssDNA) [CRP-PQS1] | no binding |

Molecular target: T2, PLGF
Assay: SPR

| Binder | binding result |
| --- | --- |
| GGGCGCCGAGGGGCAGGCGGGTCCCGGGG (structured_DNA) [PLGF-PQS1] | no binding |
| GGGCCTCGCGGGCCAGTCGGGCGTCGCGGG (structured_DNA) [PLGF-PQS3] | no binding |
| GGGAGGGAGGGAGGG (structured_DNA) [PLGF-PQS2] | no binding |
| GGGCGGGTGTCCCGGGTGTCGGG (structured_DNA) [PLGF-PQS4] | no binding |
